Measured values published in patent publication US20070015228A1 (Genentech, published 2007).

B1: humanized 2H7 variant v511 (antibody, human IgG1, kappa, V domains shown)
VH: EVQLVESGGGLVQPGGSLRLSCAASGYTFTSYNMHWVRQAPGKGLEWVGAIYPGNGATSYNQKFKGRFTISVDKSKNTLYLQMNSLRAEDTAVYYCARVVYYSYRYWYFDVWGQGTLVTVSS
VL: DIQMTQSPSSLSASVGDRVTITCRASSSVSYLHWYQQKPGKAPKPLIYAPSNLASGVPSRFSGSGSGTDFTLTISSLQPEDFATYYCQQWAFNPPTFGQGTKVEIKR
notes: also called 2H7.v511
B2: humanized anti-CD20 antibody 2H7.v16 (antibody, human IgG1, kappa)
heavy: not shown
light: DIQMTQSPSSLSASVGDRVTITCRASSSVSYMHWYQQKPGKAPKPLIYAPSNLASGVPSRFSGSGSGTDFTLTISSLQPEDFATYYCQQWSFNPPTFGQGTKVEIKRTVAAPSVFIFPPSDEQLKSGTASVVCLLNNFYPREAKVQWKVDNALQSGNSQESVTEQDSKDSTYSLSSTLTLSKADYEKHKVYACEVTHQGLSSPVTKSFNRGEC
notes: Human IgG1, expressed in 293 cells; also called humanized anti-CD20 IgG; humanized 2H7
B3: anti-idiotypic antibody 8A3 (antibody, V domains shown)
VH: QVQLQQSGAELAKPGASVKMSCKASGYNFTTYWMHWVKQRPGQGLEWIGYINPSTDYTEYNQKFKYKATLTADKSSSTAYIQLSSLTSEDSAVYYCARWWDYDWYFDVWGAGTPLTVSS
VL: DIVMTQSQEFMSTSVGDRVSVTCKASQTVDTNVAWYQQKLGQSPKPLIYSASYRCSGVPDRFTGSGSRTDFTLTITNVQSEDLAEYFCQQYHSFPWTFGGGTKVEIKR
notes: Murine monoclonal antibody raised against 2H7.v16; It was biotinylated when used as detection antibody and unlabeled when coated; also called MAb 8A3; 8A3-bio

What was measured:
[1] = target: B3; assay: sandwich ELISA in mouse serum, 8C5 coat + 2H7 + 8A3-bio; the signal needs binding to both 8C5 and 8A3
[2] = target: B3; assay: ELISA, plate coated with 8A3, serially diluted antibody, detection with goat anti-human IgG Fc-HRP
[3] = target: B2; assay: ELISA, 8A3 coated on plate, anti-human IgG Fc-HRP detection
[4] = target: T1, humanized anti-CD20 antibody 2H7.v31; assay: as above
T1 construct: The L chain is the same as for 2H7.v16

[5] = target: B1; assay: sandwich ELISA, 8C5 coat, biotinylated 8A3 detection, mouse serum

B1
binding result [1]: binds

B2
binding result [2]: binds

B3
binding result [3]: binds
binding result [4]: binds
binding result [5]: binds
